Measured values taken from article PMC314469, “Protein Interaction Networks by Proteome Peptide Scanning” (PLoS Biology, 2004).

Key:
[1] = biological target: T1, amphyphisin SH3 (AMPH_HUMAN), P49418; assay: SPOT array
T1 chain: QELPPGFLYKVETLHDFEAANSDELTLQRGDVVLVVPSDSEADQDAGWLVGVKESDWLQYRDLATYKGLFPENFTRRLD

[2] = biological target: endophilin SH3 (SH3G2_HUMAN), Q99962; assay: SPOT array

B1: O94836 58-71 (peptide)
chain: GGRTPRRPGLQSGG
Q: B1 was tested. Which normalised SPOT signal, Boehringer light units (BLU); mean over the file's lines of this peptide [1] did it give?
A: 28

Q: What about the normalised SPOT signal, Boehringer light units (BLU); mean over the file's lines of this peptide [2] of the same binder?
A: 72.8

B2: Q99973 387-400 (peptide)
chain: AKRHPRRPPRSPGM
Q: How did the normalised SPOT signal, Boehringer light units (BLU); mean over the file's lines of this peptide [1] turn out when B2 was run?
A: 1220

Q: What about the normalised SPOT signal, Boehringer light units (BLU); mean over the file's lines of this peptide [2] of the same binder?
A: 141

B3: Q00056 105-119 (peptide)
chain: GGASPGRPPQPEQP
Q: For B3, which normalised SPOT signal, Boehringer light units (BLU); mean over the file's lines of this peptide [1] is on record?
A: 38.2

Q: What about the normalised SPOT signal, Boehringer light units (BLU); mean over the file's lines of this peptide [2] of the same binder?
A: 845

B4: O95153 1407-1421 (peptide)
chain: GGGSPEKPPSRRRP
Q: What does the source list for B4?
A: normalised SPOT signal, Boehringer light units (BLU); mean over the file's lines of this peptide [1]: 811; normalised SPOT signal, Boehringer light units (BLU); mean over the file's lines of this peptide [2]: 499

B5: O95359 373-386 (peptide)
chain: AKMPLRRPKMKKTP
Q: How did the normalised SPOT signal, Boehringer light units (BLU); mean over the file's lines of this peptide [1] turn out when B5 was run?
A: 34.8

Q: And the normalised SPOT signal, Boehringer light units (BLU); mean over the file's lines of this peptide [2]?
A: 200

B6: Q92622 499-512 (peptide)
chain: GEGMFRRPSEGQSL
Q: Which normalised SPOT signal, Boehringer light units (BLU); mean over the file's lines of this peptide [1] does the source give for B6 here?
A: 43.2

Q: And the normalised SPOT signal, Boehringer light units (BLU); mean over the file's lines of this peptide [2]?
A: 68.7

B7: Q9UQ05 736-749 (peptide)
chain: GGPRPRRPLLLPNL
Q: Which normalised SPOT signal, Boehringer light units (BLU); mean over the file's lines of this peptide [1] does the source give for B7 here?
A: 40.5

Q: What about the normalised SPOT signal, Boehringer light units (BLU); mean over the file's lines of this peptide [2] of the same binder?
A: 2950

B8: Q9HCE9 771-784 (peptide)
chain: GGHGPERPKRPGSL
Q: Which normalised SPOT signal, Boehringer light units (BLU); mean over the file's lines of this peptide [1] does the source give for B8 here?
A: 7740

Q: And the normalised SPOT signal, Boehringer light units (BLU); mean over the file's lines of this peptide [2]?
A: 1320

B9: Q9H6I2 64-77 (peptide)
chain: GESRIRRPMNAFMV
Q: How did the normalised SPOT signal, Boehringer light units (BLU); mean over the file's lines of this peptide [1] turn out when B9 was run?
A: 46.4

Q: What about the normalised SPOT signal, Boehringer light units (BLU); mean over the file's lines of this peptide [2] of the same binder?
A: 138

B10: Q96BH5 55-68 (peptide)
chain: AKREPRRPSWSPRL
Q: Which results are given for B10?
A: normalised SPOT signal, Boehringer light units (BLU); mean over the file's lines of this peptide [1]: 47.1; normalised SPOT signal, Boehringer light units (BLU); mean over the file's lines of this peptide [2]: 195

B11: P40222 168-181 (peptide)
chain: GINAFARPSKMPYV
Q: How did the normalised SPOT signal, Boehringer light units (BLU); mean over the file's lines of this peptide [1] turn out when B11 was run?
A: 105

Q: What about the normalised SPOT signal, Boehringer light units (BLU); mean over the file's lines of this peptide [2] of the same binder?
A: 96.7

B12: P13385 32-45 (peptide)
chain: GHQEFARPSRGYLA
Q: How did the normalised SPOT signal, Boehringer light units (BLU); mean over the file's lines of this peptide [1] turn out when B12 was run?
A: 2370

Q: What about the normalised SPOT signal, Boehringer light units (BLU); mean over the file's lines of this peptide [2] of the same binder?
A: 214

B13: O43823 235-249 (peptide)
chain: GGPSPSRPPPSLFS
Q: Which results are given for B13?
A: normalised SPOT signal, Boehringer light units (BLU); mean over the file's lines of this peptide [1]: 93.5; normalised SPOT signal, Boehringer light units (BLU); mean over the file's lines of this peptide [2]: 1350

B14: Q9ULP6 14-28 (peptide)
chain: GGFLPARPPRAQRH
Q: For B14, which normalised SPOT signal, Boehringer light units (BLU); mean over the file's lines of this peptide [1] is on record?
A: 18500

Q: What about the normalised SPOT signal, Boehringer light units (BLU); mean over the file's lines of this peptide [2] of the same binder?
A: 14800

B15: O43525 89-102 (peptide)
chain: AKTPLSRPVKRNNA
Q: With B15 as the binder, how does the normalised SPOT signal, Boehringer light units (BLU); mean over the file's lines of this peptide [1] read?
A: 52.6

Q: What about the normalised SPOT signal, Boehringer light units (BLU); mean over the file's lines of this peptide [2] of the same binder?
A: 149

B16: Q14349 378-391 (peptide)
chain: GHGEPRRPPSDPLA
Q: Which results are given for B16?
A: normalised SPOT signal, Boehringer light units (BLU); mean over the file's lines of this peptide [1]: 20.6; normalised SPOT signal, Boehringer light units (BLU); mean over the file's lines of this peptide [2]: 65.1

B17: Q14031 953-966 (peptide)
chain: GIPSPRRPMSNLWL
Q: Which results are given for B17?
A: normalised SPOT signal, Boehringer light units (BLU); mean over the file's lines of this peptide [1]: 76.5; normalised SPOT signal, Boehringer light units (BLU); mean over the file's lines of this peptide [2]: 647

B18: Q9NVN2 625-638 (peptide)
chain: GKLPPKRPELPPTL
Q: Which results are given for B18?
A: normalised SPOT signal, Boehringer light units (BLU); mean over the file's lines of this peptide [1]: 30.7; normalised SPOT signal, Boehringer light units (BLU); mean over the file's lines of this peptide [2]: 205

B19: Q9UM81 410-423 (peptide)
chain: GEQAPARPPRNVQA
Q: Which results are given for B19?
A: normalised SPOT signal, Boehringer light units (BLU); mean over the file's lines of this peptide [1]: 3470; normalised SPOT signal, Boehringer light units (BLU); mean over the file's lines of this peptide [2]: 527

B20: Q9H013 877-891 (peptide)
chain: GGASPLRPPGAGPQ
Q: Which normalised SPOT signal, Boehringer light units (BLU); mean over the file's lines of this peptide [1] does the source give for B20 here?
A: 63.9

Q: What about the normalised SPOT signal, Boehringer light units (BLU); mean over the file's lines of this peptide [2] of the same binder?
A: 80.4

B21: O75866 29-42 (peptide)
chain: GHRPPGRPRRSPKA
Q: What does the source list for B21?
A: normalised SPOT signal, Boehringer light units (BLU); mean over the file's lines of this peptide [1]: 1010; normalised SPOT signal, Boehringer light units (BLU); mean over the file's lines of this peptide [2]: 172

B22: O75145 4-17 (peptide)
chain: GEGGPQRPSRSQRR
Q: Which results are given for B22?
A: normalised SPOT signal, Boehringer light units (BLU); mean over the file's lines of this peptide [1]: 9950; normalised SPOT signal, Boehringer light units (BLU); mean over the file's lines of this peptide [2]: 1590

B23: Q9BZJ7 202-215 (peptide)
chain: AALRPPRPARGSRL
Q: How did the normalised SPOT signal, Boehringer light units (BLU); mean over the file's lines of this peptide [1] turn out when B23 was run?
A: 17100

Q: And the normalised SPOT signal, Boehringer light units (BLU); mean over the file's lines of this peptide [2]?
A: 23700

B24: P51864 32-45 (peptide)
chain: GHQEFARPSRGDLA
Q: B24 was tested. Which normalised SPOT signal, Boehringer light units (BLU); mean over the file's lines of this peptide [1] did it give?
A: 1570

Q: And the normalised SPOT signal, Boehringer light units (BLU); mean over the file's lines of this peptide [2]?
A: 52.8

B25: P18206 866-880 (peptide)
chain: GEVPPPRPPPPEEK
Q: B25 was tested. Which normalised SPOT signal, Boehringer light units (BLU); mean over the file's lines of this peptide [1] did it give?
A: 45.2

Q: What about the normalised SPOT signal, Boehringer light units (BLU); mean over the file's lines of this peptide [2] of the same binder?
A: 1140

B26: Q9Y474 19-33 (peptide)
chain: GIKSPSKPPGPNRI
Q: How did the normalised SPOT signal, Boehringer light units (BLU); mean over the file's lines of this peptide [1] turn out when B26 was run?
A: 53.5

Q: What about the normalised SPOT signal, Boehringer light units (BLU); mean over the file's lines of this peptide [2] of the same binder?
A: 7270

B27: O00456 566-579 (peptide)
chain: GHRDPRRPRPAQLP
Q: What does the source list for B27?
A: normalised SPOT signal, Boehringer light units (BLU); mean over the file's lines of this peptide [1]: 12.9; normalised SPOT signal, Boehringer light units (BLU); mean over the file's lines of this peptide [2]: 418

B28: Q9H3Z7 68-81 (peptide)
chain: GGDALGRPPRGARS
Q: What does the source list for B28?
A: normalised SPOT signal, Boehringer light units (BLU); mean over the file's lines of this peptide [1]: 2160; normalised SPOT signal, Boehringer light units (BLU); mean over the file's lines of this peptide [2]: 741

B29: Q13319 50-63 (peptide)
chain: GESRLKRPSVLISA
Q: How did the normalised SPOT signal, Boehringer light units (BLU); mean over the file's lines of this peptide [1] turn out when B29 was run?
A: 31.9

Q: And the normalised SPOT signal, Boehringer light units (BLU); mean over the file's lines of this peptide [2]?
A: 0

B30: Q9P2B8 1668-1681 (peptide)
chain: GIPPPKRPLKVSQK
Q: For B30, which normalised SPOT signal, Boehringer light units (BLU); mean over the file's lines of this peptide [1] is on record?
A: 116

Q: And the normalised SPOT signal, Boehringer light units (BLU); mean over the file's lines of this peptide [2]?
A: 687

B31: Q12946 16-30 (peptide)
chain: GIRRPEKPPYSYIA
Q: Which results are given for B31?
A: normalised SPOT signal, Boehringer light units (BLU); mean over the file's lines of this peptide [1]: 53.1; normalised SPOT signal, Boehringer light units (BLU); mean over the file's lines of this peptide [2]: 864

B32: O15082 431-444 (peptide)
chain: GKLKLKRPEQLQEV
Q: Which normalised SPOT signal, Boehringer light units (BLU); mean over the file's lines of this peptide [1] does the source give for B32 here?
A: 32.6

Q: And the normalised SPOT signal, Boehringer light units (BLU); mean over the file's lines of this peptide [2]?
A: 35.2

B33: Q96LK2 45-58 (peptide)
chain: GEQTFKRPAEDTLY
Q: What does the source list for B33?
A: normalised SPOT signal, Boehringer light units (BLU); mean over the file's lines of this peptide [1]: 15.2; normalised SPOT signal, Boehringer light units (BLU); mean over the file's lines of this peptide [2]: 15.9

B34: O43584 81-95 (peptide)
chain: GGFKPSRPPRPSRP
Q: Which results are given for B34?
A: normalised SPOT signal, Boehringer light units (BLU); mean over the file's lines of this peptide [1]: 18100; normalised SPOT signal, Boehringer light units (BLU); mean over the file's lines of this peptide [2]: 22700

B35: Q9H7M7 1141-1154 (peptide)
chain: GGVRLRRPSVNGEP
Q: What does the source list for B35?
A: normalised SPOT signal, Boehringer light units (BLU); mean over the file's lines of this peptide [1]: 35.8; normalised SPOT signal, Boehringer light units (BLU); mean over the file's lines of this peptide [2]: 36

B36: Q9H5X0 195-208 (peptide)
chain: GFGVLRRPRPTPGD
Q: Which results are given for B36?
A: normalised SPOT signal, Boehringer light units (BLU); mean over the file's lines of this peptide [1]: 38.4; normalised SPOT signal, Boehringer light units (BLU); mean over the file's lines of this peptide [2]: 74.2

B37: Q15427 329-343 (peptide)
chain: GGQPPPRPPPGMPH
Q: Which normalised SPOT signal, Boehringer light units (BLU); mean over the file's lines of this peptide [1] does the source give for B37 here?
A: 43.1

Q: And the normalised SPOT signal, Boehringer light units (BLU); mean over the file's lines of this peptide [2]?
A: 536

B38: Q96GI7 75-89 (peptide)
chain: AAALPAKPPNLDAA
Q: Which normalised SPOT signal, Boehringer light units (BLU); mean over the file's lines of this peptide [1] does the source give for B38 here?
A: 53.7

Q: What about the normalised SPOT signal, Boehringer light units (BLU); mean over the file's lines of this peptide [2] of the same binder?
A: 73

B39: P52926 41-54 (peptide)
chain: GEPSPKRPRGRPKG
Q: With B39 as the binder, how does the normalised SPOT signal, Boehringer light units (BLU); mean over the file's lines of this peptide [1] read?
A: 23.6

Q: What about the normalised SPOT signal, Boehringer light units (BLU); mean over the file's lines of this peptide [2] of the same binder?
A: 59.1

B40: Q9HBQ2 154-168 (peptide)
chain: GHTLPPKPPSPRGT
Q: How did the normalised SPOT signal, Boehringer light units (BLU); mean over the file's lines of this peptide [1] turn out when B40 was run?
A: 577

Q: And the normalised SPOT signal, Boehringer light units (BLU); mean over the file's lines of this peptide [2]?
A: 4690

B41: O43594 101-114 (peptide)
chain: GFPAPFRPSRKRSG
Q: For B41, which normalised SPOT signal, Boehringer light units (BLU); mean over the file's lines of this peptide [1] is on record?
A: 9490

Q: And the normalised SPOT signal, Boehringer light units (BLU); mean over the file's lines of this peptide [2]?
A: 10200

B42: Q9ULT2 465-478 (peptide)
chain: GKGRPDRPARRPSP
Q: Which normalised SPOT signal, Boehringer light units (BLU); mean over the file's lines of this peptide [1] does the source give for B42 here?
A: 2720

Q: And the normalised SPOT signal, Boehringer light units (BLU); mean over the file's lines of this peptide [2]?
A: 8700
